Test results published in US20240034792A1 (HARBOUR BIOMED SHANGHAI, published 2024).
Where two headings read alike, the source gives them in different places.

Legend:
[1] = molecular target: T1, Human PD-1 expressed on CHO-K1 cells (CHO-K1/hPD-1) (human, UniProt Q15116 25-288); experiment: FACS, CHO-K1/hPD-1 cells
T1 construct: whole, on cells; also called CHO-K1 cells overexpressing human PD-1
Method: (§1) In order to investigate the in vitro binding activity of the PD-1 antigen-binding proteins to human/cynomolgus monkey PD-1, the binding assay at the cellular level was performed using a CHO-K1 cell strain overexpressing human or cynomolgus monkey PD-1 (CHO-K1/hPD-1 or CHO-K1/cyno PD-1, from GenScript). Briefly, the CHO-K1-hPD-1 cells were digested and resuspended in an F-12K complete medium, and the cell density was adjusted to 1×10⁶ cells/mL. The cells were seeded in a 96-well V-bottom plate (Corning, Cat#3894) at 100 μL/well, followed by the addition of the test antigen-binding proteins with concentrations 2-fold of final concentrations obtained by 5-fold gradient dilution were each added at 100 μL/well. The mixtures were well mixed. The maximum final concentration of the antigen-binding proteins was 100 nM or 300 nM. A total of 8-11 concentrations were set. hIgG was used as a control. The cells were incubated at 4° C. for 1 h away from light. Thereafter, the cells in each well were rinsed twice with 100 μL of pre-cooled PBS, and centrifuged at 500 g at 4° C. for 5 min, and then the supernatant was discarded. Then 100 μL of a fluorescent secondary antibody (goat anti-human IgG (H+L) secondary antibody, Alexa Fluor® 488 conjugate, Invitrogen, Cat #A11013, 1:1000) was added to each well. The plate was incubated away from light at 4° C. for 30 min. The cells in each well were rinsed twice with 200 μL of pre-cooled PBS, and centrifuged at 500 g at 4° C. for 5 min, and then the supernatant was discarded. Finally, the cells in each well were resuspended in 200 μL of pre-cooled PBS, and the fluorescence signal values were read using a BD FACS CANTOII.

[2] = molecular target: T2, Human PD-1 protein with histidine and avi tags (ACRO Biosystems, PD1-H82E4) (human, UniProt Q15116 25-167); experiment: BLI (Octet Red96e), PD-1 captured on SA sensor, 1:1 local fit
T2 construct: Captured on streptavidin (SA) sensors in the BLI assay; not shown: histidine and avi tags
T2 sequence (Q15116 25-167 limits assumed): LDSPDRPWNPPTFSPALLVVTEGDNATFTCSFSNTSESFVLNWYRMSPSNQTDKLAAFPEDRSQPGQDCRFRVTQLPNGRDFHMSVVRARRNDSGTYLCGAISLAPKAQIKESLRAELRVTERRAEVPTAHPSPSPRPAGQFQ
Method: (§2) Human PD-1 proteins with histidine and avi tags were purchased from the manufacturer ACRO Biosystems (Cat#: PD1-H82E4), and the assay buffer was 1× kinetics buffer (diluted from 10× kinetics buffer (ForteBio, Cat#: 18-1105)) for kinetic assay and dilution of antigens and antibodies. The binding kinetics between the antigen and the antibody was analyzed by the biolayer interferometry (BLI) technique using an Octet molecular interaction analyzer (ForteBio, model: Octet Red96e).
(§3) When the binding kinetics between the antigen and the antibody was determined, the rotation speed of the sensor was set at 1000 rpm/min. The eight SA sensors placed in a column were first equilibrated in an assay buffer for 10 min and then used to capture PD-1 at a capture height of 0.5 nm. Thereafter, the SA sensors were equilibrated in the assay buffer for 100 s, and then were associated with each antibody diluted to a single concentration and with a row of blank buffer wells for 180 s, followed by dissociation for 600 s. A new column of SA sensors were used in each cycle.
(§4) When data analysis was performed using Octet Data Analysis software (Fortebio, version 11.0), the reference signals were subtracted by a single reference mode (reference well), the data were fitted by a “1:1 Local fitting” method, and the kinetic parameters of the binding of the antigen to the antibody were calculated to obtain kon (1/Ms) values, kdis (1/s) values and KD (M) values.

[3] = molecular target: T1, Human PD-1 expressed on CHO-K1 cells …; experiment: FACS, CHO-K1/hPD-1 cells; remark: listed apart in the source
Method: as §1

[4] = molecular target: T2, Human PD-1 protein with histidine and …; experiment: BLI; ratio of kdis, apparently PR005090 over the variant
Method: as §2, §3, §4

[5] = molecular target: T1, Human PD-1 expressed on CHO-K1 cells …; experiment: FACS blocking of biotin-labeled human PD-L1 binding to CHO-K1-hPD-1 cells
Method: Briefly, the CHO-K1-hPD-1 cells were digested and resuspended in an F-12K complete medium, and the cell density was adjusted to 1×10⁶ cells/mL. The cells were seeded in a 96-well V-bottom plate (Corning, Cat#3894) at 100 μL/well, followed by the addition of the test antigen-binding proteins with concentrations 2-fold of final concentrations obtained by 3-fold or 5-fold gradient dilution were each added at 100 μL/well. The mixtures were well mixed. The maximum final concentration of the antigen-binding proteins was 100 nM or 300 nM. A total of 8 concentrations were set. hIgG was used as a control. The cells were incubated at 4° C. for 1 h away from light. […] The cells were incubated at 4° C. away from light for 30 min. The cells in each well were rinsed twice with 100 μL of pre-cooled PBS, and centrifuged at 500 g at 4° C. for 5 min, and then the supernatant was discarded. A fluorescent secondary antibody (PE Streptavidin, BD, Cat# 554061, 1:200) was added at 100 μL/well, and the cells were incubated at 4° C. away from light for 30 min. The cells in each well were rinsed twice with 200 μL of pre-cooled PBS, and centrifuged at 500 g at 4° C. for 5 min, and then the supernatant was discarded. Finally, the cells in each well were resuspended in 200 μL of pre-cooled PBS, the fluorescence signal values were read using a BD FACS CANTOII, and the IC₅₀ values were calculated.

T1 sequence (Q15116 25-288): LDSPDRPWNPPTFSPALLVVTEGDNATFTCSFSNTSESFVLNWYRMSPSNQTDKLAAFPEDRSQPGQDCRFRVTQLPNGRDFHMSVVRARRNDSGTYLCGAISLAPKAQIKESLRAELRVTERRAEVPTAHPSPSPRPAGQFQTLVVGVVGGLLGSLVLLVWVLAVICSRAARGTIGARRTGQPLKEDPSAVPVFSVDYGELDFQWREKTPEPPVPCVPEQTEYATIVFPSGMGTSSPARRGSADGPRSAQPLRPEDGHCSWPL

Row | Binder | EC50 [1] | MFI Maximum [1] | Kd [2] | koff [2] | kon [2] | EC50 [3] | MFI Maximum [3] | kdis ratio [4] | IC50 [5] | Maximum inhibition rate (%) [5]
1 | PR005090 (VHH, Monovalent single-domain (VH) antibody with Flag-6His tag) VHH: EVQLVETGGGLIQPGGSLRLSCAASGFNVSSHYMSWVRQAPGKGREWVSIIDGGGSTYYADSVKGRFTISRDNSKNRLYLQMNSLRAEDTAMYYCARATAVAEKNGYNYPFNYWGQGTLVTVSS | 48.9 nM | 4150 | 20.8 nM | 0.00114 s⁻¹ | 55000 M⁻¹ s⁻¹ | 48.9 nM | 4150 |  |  | 
2 | PR005149 (VHH, Monovalent single-domain (VH) variant of PR002481 with Flag-6His tag) VHH: EVQLVETGGGLIQPGGSLRLSCAASGFNVSSHYMSWVRQAPGKGREWVSIIDKAGSGYYADSVKGRFTISRDNSKNRLYLQMNSLRAEDTAMYYCARATEVREKQGYNYPFNYWGQGTLVTVSS | 10.9 nM | 11100 | 14 nM | 4.83e-05 s⁻¹ | 3450 M⁻¹ s⁻¹ |  |  | 23.7 |  | 
3 | PR002475 (antibody, human IgG1, V domains shown, Heavy-chain-only antibody (HCAb), human IgG1 Fc; two heavy chains, no light chain; also called R4004P547D9) VH: EVQLVETGGGLIQPGGSLRLSCAASGFNVSSNYMSWVRQAPGKGLEWVSIIHSGGSTYYADSVKGRFTISRDNSKNTLYLQMNSLRAEDTAVYYCARAIAVAEKNGYNYPFNYWGQGTLVTVSS | 18.5 nM | 959000 |  |  |  |  |  |  | 37.5 nM | 92.1%
4 | PR002477 (antibody, human IgG1, V domains shown, Heavy-chain-only antibody (HCAb), human IgG1 Fc; two heavy chains, no light chain; also called R4004P547H9) VH: EVQLVETGGGLIQPGGSLRLSCAASGFNVSSHYMSWVRQAPGKGLEWVSIIHSGGSTYYADSVKGRFTISRDNSKNRLYLQMNSLRAEDTAVYYCARAIAVAEKNGYNYPFNYWGQGTLVTVSS | 29.3 nM | 955000 |  |  |  |  |  |  | 7.7 nM | 67.5%
5 | PR005142 (VHH, Monovalent single-domain (VH) variant of PR002481 with Flag-6His tag) VHH: EVQLVETGGGLIQPGGSLRLSCAASGFNVSFYYMSWVRQAPGKGREWVSIIDKGGSGYYAASVKGRFTISRDNSKNRLYLQMNSLRAEDTAMYYCARATEVREKNGYNYPFNYWGQGTLVTVSS | 70.9 nM | 12400 | 6.76 nM | 5.55e-05 s⁻¹ | 8200 M⁻¹ s⁻¹ |  |  | 20.6 |  | 
6 | PR005147 (VHH, Monovalent single-domain (VH) variant of PR002481 with Flag-6His tag) VHH: EVQLVETGGGLIQPGGSLRLSCAASGFNVSYYYMSWVRQAPGKGREWVSIIDKAGSTYYGASVKGRFTISRDNSKNRLYLQMNSLRAEDTAMYYCARATMVREKNGYNYPFNYWGQGTLVTVSS | 382 nM | 18000 | 16.5 nM | 2.74e-05 s⁻¹ | 1660 M⁻¹ s⁻¹ |  |  | 41.7 |  | 
7 | PR005141 (VHH, Monovalent single-domain (VH) variant of PR002481 with Flag-6His tag) VHH: EVQLVETGGGLIQPGGSLRLSCAASGFNVSYFYMSWVRQAPGKGREWVSIIDKGGSGYYAASVKGRFTISRDNSKNRLYLQMNSLRAEDTAMYYCARATEVREKNGYNYPFNYWGQGTLVTVSS | 110 nM | 13300 | 1.49 nM | 7.75e-05 s⁻¹ | 52100 M⁻¹ s⁻¹ |  |  | 14.7 |  | 
8 | PR002478 (antibody, human IgG1, V domains shown, Heavy-chain-only antibody (HCAb), human IgG1 Fc; two heavy chains, no light chain; also called R4004P548A8) VH: EVQLVETGGGLIQPGGSLRLSCAASGFNVSSNYMSWVRQAPGKGLEWVSIIHSGGSTYYADSVKGRFTISRDNSKNRLYLQMNSLRAEDTAVYYCARAIAVAEKNGYNYPFNYWGQGTLVTVSS | 20.6 nM | 953000 |  |  |  |  |  |  | 54.5 nM | 97%
9 | PR005148 (VHH, Monovalent single-domain (VH) variant of PR002481 with Flag-6His tag) VHH: EVQLVETGGGLIQPGGSLRLSCAASGFNVSSHYMSWVRQAPGKGREWVSIIDKAGSGYYAASVKGRFTISRDNSKNRLYLQMNSLRAEDTAMYYCARATEVREKNGYNYPFNYWGQGTLVTVSS | 27.6 nM | 11700 | 1.21 nM | 5.72e-05 s⁻¹ | 47200 M⁻¹ s⁻¹ |  |  | 20 |  | 
10 | PR005150 (VHH, Monovalent single-domain (VH) variant of PR002481 with Flag-6His tag) VHH: EVQLVETGGGLIQPGGSLRLSCAASGFNVSSFYMSWVRQAPGKGREWVSIIDKAGSTYYGASVKGRFTISRDNSKNRLYLQMNSLRAEDTAMYYCARATEVREKQGYNYPFNYWGQGTLVTVSS | 22.4 nM | 10400 | < 0.001 nM | < 1e-07 s⁻¹ | 59000 M⁻¹ s⁻¹ |  |  |  |  | 
11 | PR002473 (antibody, human IgG1, V domains shown, Heavy-chain-only antibody (HCAb), human IgG1 Fc; two heavy chains, no light chain; also called R4004P541H11) VH: EVQLVETGGGLIQPGGSLRLSCAASGFNVSSHYMSWVRQAPGKGLEWVSIIHSGGSTYYADSVKGRFTISRDNSKNRLYLQMNSLIAEDTAVYYCARAIAVAEKNGYNYPFNYWGQGTLVTVSS | 25.6 nM | 1.04e+06 |  |  |  |  |  |  | 4.79 nM | 62.2%
12 | PR005144 (VHH, Monovalent single-domain (VH) variant of PR002481 with Flag-6His tag) VHH: EVQLVETGGGLIQPGGSLRLSCAASGFNVSFYYMSWVRQAPGKGREWVSIIDKSGSTYYAASVKGRFTISRDNSKNRLYLQMNSLRAEDTAMYYCARATEVREKNGYNYPFNYWGQGTLVTVSS | 22.9 nM | 11600 | 4.51 nM | 4.52e-05 s⁻¹ | 10000 M⁻¹ s⁻¹ |  |  | 25.2 |  | 
13 | PR005146 (VHH, Monovalent single-domain (VH) variant of PR002481 with Flag-6His tag) VHH: EVQLVETGGGLIQPGGSLRLSCAASGFNVSFHYMSWVRQAPGKGREWVSIIDGAGSGYYAASVKGRFTISRDNSKNRLYLQMNSLRAEDTAMYYCARATMVREKQGYNYPFNYWGQGTLVTVSS |  |  | 1020 nM | 0.000605 s⁻¹ | 593 M⁻¹ s⁻¹ |  |  | 1.89 |  | 
14 | PR005093 (VHH, Monovalent single-domain (VH) variant of PR002481 with Flag-6His tag) VHH: EVQLVETGGGLIQPGGSLRLSCAASGFNVSSHYMSWVRQAPGKGREWVSIIDGGGSTYYADSVKGRFTISRDNSKNRLYLQMNSLRAEDTAMYYCARATRVREANGYNYPFNYWGQGTLVTVSS |  |  | 4.82 nM | 0.000636 s⁻¹ | 132000 M⁻¹ s⁻¹ | 10.5 nM | 4530 | 1.8 |  | 
15 | PR005145 (VHH, Monovalent single-domain (VH) variant of PR002481 with Flag-6His tag) VHH: EVQLVETGGGLIQPGGSLRLSCAASGFNVSFYYMSWVRQAPGKGREWVSIIDKGGSTYYGDSVKGRFTISRDNSKNRLYLQMNSLRAEDTAMYYCARATEVREKNGYNYPFNYWGQGTLVTVSS | 18 nM | 10500 | 5.31 nM | 5.24e-05 s⁻¹ | 9860 M⁻¹ s⁻¹ |  |  | 21.8 |  | 
